Test results published in US20160177307.

Biological target: PDGF-BB (platelet-derived growth factor BB) (Homo sapiens) (UniProt P01127)
Test: filter
[1] = all Z are BndU, rest DNA, SB18T, 37 C

PDGF-BB (platelet-derived growth factor BB) (Homo sapiens), sequence (P01127 82-190): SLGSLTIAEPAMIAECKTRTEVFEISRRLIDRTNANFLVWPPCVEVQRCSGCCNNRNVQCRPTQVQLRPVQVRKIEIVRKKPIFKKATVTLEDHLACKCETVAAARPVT

Sequence: TTACGTTACCGCGTTTATAGCG [4149-8_432]
- Kd (as 4149-8_379, PS 9,15,17): 0.029 nM

Sequence: TTACGTTACACGCGTTTATAGCG [4149-8_186]
- Kd (Bn-dU, 2Nap-dU8, Heg5, 2'-OMe A3, A11, A21, G24): > 10 nM

Sequence: CGAAGCATGTATGCACATCT [5169-4_62]
- Kd (C3 spacer at 4, NapdU at 9,11,13,19,21, C3 spacer walk): 42 nM

Sequence: TTACGTTACCGCGTTTATAGCG [4149-8_437]
- Kd (as 4149-8_379, BndU 2, NapdU 16, PS 9,15): 0.0074 nM

Sequence: CGACAGCATGTATGCACATCT [5169-4_48]
- Kd (NapdU at P, 2'-OMe 18): 0.014 nM

Sequence: TTACGTTACACGCGTTTATAGCG [4149-8_250]
- Kd (Tyr, MBn, FBn, Ib, 2Nap, Pe, Th, NE dU, Heg, 2'-OMe): > 10 nM

Sequence: CGACAGCTGTATGCACATCT [5169-4_66]
- Kd (C3 spacer at 8, NapdU at 9,11,13,19,21, C3 spacer walk): 8.5 nM

Sequence: ATCTCTTACGACTACGTTACACGCGTTTATAGCGTCAA [4149-8_9]
- Kd [1]: 0.03 nM

Sequence: CGACAGCATGTATGCACATCT [5169-4_50]
- Kd (NapdU at P, 2'-OMe 11): 0.047 nM

Sequence: TTACGACTACGTTACACGCGTTTATAGCG [4149-8_107]
- Kd (Bn-dU, 2'-OMe U13): > 10 nM

Sequence: TTACGACTACGTTACACCGTTTATAGCG [4149-8_81]
- Kd (Bn-dU, C3 at 18): > 10 nM

Sequence: CTGCCTCGACAGCATGTATGCACATCTAGAGGCTA [5169-4_11]
- Kd (NapdU at P): 0.6 nM

Sequence: CGTTACACGCGTTTATAGCGTCAACCCGAGTGAACA [4149-8_17]
- Kd (Bn-dU): > 10 nM

Sequence: GACAGCATGTATGCACATCTA [5169-4_29]
- Kd (NapdU at P): 0.062 nM

Sequence: CGACAGCATGTATGCACATCT [5169-4_152]
- Kd (as 5169-4_146, PS 5, 3' inverted dT): 0.015 nM

Sequence: GACAGCATGTATGCACATCTAGAGGCTACCCAGTGAA [5169-4_13]
- Kd (NapdU at P): 0.027 nM

Sequence: CGACAGCATGTATGCAATCT [5169-4_75]
- Kd (NapdU at P, C3 spacer at 17): 0.14 nM

Sequence: CGACAGCATGTATGCACATCT [5169-4_33]
- Kd (NapdU at P, 2'-OMe 1): 0.027 nM

Sequence: CGACAGCATGTATGCACATCT [5169-4_107]
- Kd (NapdU at P, 2'-OMe 1,6,18): 0.013 nM

Sequence: TTACGACTACGTACACGCGTTTATAGCG [4149-8_75]
- Kd (Bn-dU, C3 at 12): > 10 nM

Sequence: TTACGTTACACGCGTTTATAGCG [4149-8_277]
- Kd (Bn-dU, Tyr-dU1, Ib-dU8, Pe-dU17, Th-dU18, Heg5, 2'-OMe A3, A11, A21, G24): > 10 nM

Sequence: TTACGTTACCGCGTTTATAGCG [4149-8_431]
- Kd (as 4149-8_379, NapdU 16, PS 9,15,17): 0.043 nM

Sequence: CGACAGCATGTATGCACATCT [5169-4_86]
- Kd (NapdU at P, 2'-OMe 1,2,4,6,7,11,14-18,20,21): 0.064 nM

Sequence: CGACAGCATGTATGCACATCT [5169-4_105]
- Kd (NapdU at P, 2'-OMe 6,18,20): 0.0061 nM

Sequence: CGACAGCATGTATGCACATCTAGAGGCTACCCAGTGAATGAGGA [5169-4_5]
- Kd (NapdU at P): 0.031 nM

Sequence: CAGCATGTATGCACATCTAGAGGCTACCCAGTGAATGAGGA [5169-4_6]
- Kd (all P are NapdU, rest DNA, SB18T, 37 C): 67 nM

Sequence: TTACGTTACACGCGTTTATAGCG [4149-8_306]
- Kd (Bn-dU, 2'-OMe Bn-U2, Heg5, 2'-OMe A3, A11, A21, G24): > 10 nM

Sequence: GACAGCATGTATGCACATCTAGA [5169-4_27]
- Kd (NapdU at P): 0.062 nM

Sequence: CTTACGACTACGTTACACGCGTTTATAGCG [4149-8_30]
- Kd [1]: 0.07 nM

Sequence: CGACAGCATGTATGCACATCT [5169-4_178]
- Kd (as 5169-4_146, PS 6, 3' inverted dT): 0.011 nM

Sequence: TTACGTTACACGCGTTTATAGCG [4149-8_310]
- Kd (Bn-dU, 2'-OMe Bn-U17, Heg5, 2'-OMe A3, A11, A21, G24): > 10 nM

Sequence: CGACAGCATGTATGCACATCT [5169-4_155]
- Kd (as 5169-4_146, PS 10, 3' inverted dT): 0.0069 nM

Sequence: TTACGTTACACGCGTTTATAGCG [4149-8_258]
- Kd (Bn-dU, 2'-OMe U7, Ib-dU8, Heg5, 2'-OMe A3, A11, A21, G24): > 10 nM

Sequence: TACGTTACACGCGTTTATAGCGTCAACCCGAGTGAACA [4149-8_16]
- Kd [1]: 22 nM

Sequence: TTACGCCGTTACACGCGTTTATAGCG [4149-8_102]
- Kd (Bn-dU, C3 linkers, 2'-OMe): > 10 nM

Sequence: CGACAGCATGTATGCACATCTA [5169-4_25]
- Kd (NapdU at P): 0.02 nM

Sequence: CGACAGCATGTATGCACATCT [5169-4_182]
- Kd (as 5169-4_146 plus PS 3' of 9,10,11,12, 3'-idT): 0.039 nM

Sequence: TTACGTTACCGCGTTTATAGCG [4149-8_433]
- Kd (as 4149-8_379, NapdU 16, PS 9,15): 0.066 nM

Sequence: CGACAGCATGTATGCACATCT [5169-4_108]
- Kd (NapdU at P, 2'-OMe 1,6,14): 0.012 nM

Sequence: TTACGTTACCGCGTTTATAGCG [4149-8_455]
- Kd (BndU, NapdU 16, 2'-OMe 3,7,12,13,18,19,21,24, PS 8,9,15,16,17, Heg 5, C3 11): 0.017 nM

Sequence: ATCTCTTACGACTACGTTACACGCGTTTATAGCGTCAACCCG [4149-8_7]
- Kd [1]: 0.02 nM

Sequence: ATCTCTTACGACTACGTTACACGCGTTTATAGCGTCAACCCGAGTGAACA [4149-8_2]
- Kd (all Z are BndU (5-(N-benzylcarboxamide)-2'-deoxyuridine), rest DNA, SB18T, 37 C, Zorbax partition): 0.05 nM

Sequence: TTACACGCGTTTATAGCGTCAACCCGAGTGAACA [4149-8_18]
- Kd [1]: 13 nM
